According to patent US20130326736A1:

Assays:
[1] = biological target: CORYNE (CRN; At5g13290) (Arabidopsis) (UniProt Q9LYU7); assay: cell-based or functional assay
[2] = biological target: CLAVATA2 (CLV2; At1g65380) (Arabidopsis) (UniProt O80809); assay: cell-based or functional assay
Sequence of UniProt O80809 (O80809 26-720): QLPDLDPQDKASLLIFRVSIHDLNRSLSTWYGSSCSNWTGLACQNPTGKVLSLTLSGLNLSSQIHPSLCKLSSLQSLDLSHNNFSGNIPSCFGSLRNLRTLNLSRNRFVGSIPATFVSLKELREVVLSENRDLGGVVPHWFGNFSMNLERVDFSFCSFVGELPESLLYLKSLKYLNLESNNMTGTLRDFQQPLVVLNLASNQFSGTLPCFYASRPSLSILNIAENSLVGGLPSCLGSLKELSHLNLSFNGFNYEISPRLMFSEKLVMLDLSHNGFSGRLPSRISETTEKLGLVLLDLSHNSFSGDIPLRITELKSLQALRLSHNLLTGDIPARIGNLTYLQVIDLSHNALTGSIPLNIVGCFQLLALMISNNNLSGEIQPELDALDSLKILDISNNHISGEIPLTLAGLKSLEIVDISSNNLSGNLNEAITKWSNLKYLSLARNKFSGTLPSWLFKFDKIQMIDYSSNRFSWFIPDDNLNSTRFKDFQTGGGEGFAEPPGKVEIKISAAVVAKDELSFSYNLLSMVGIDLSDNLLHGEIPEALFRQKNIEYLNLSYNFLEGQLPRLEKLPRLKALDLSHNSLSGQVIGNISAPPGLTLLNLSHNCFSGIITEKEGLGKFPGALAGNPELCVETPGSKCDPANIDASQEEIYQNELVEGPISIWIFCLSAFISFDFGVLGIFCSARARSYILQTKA

Sequence of UniProt Q9LYU7 (Q9LYU7 34-401): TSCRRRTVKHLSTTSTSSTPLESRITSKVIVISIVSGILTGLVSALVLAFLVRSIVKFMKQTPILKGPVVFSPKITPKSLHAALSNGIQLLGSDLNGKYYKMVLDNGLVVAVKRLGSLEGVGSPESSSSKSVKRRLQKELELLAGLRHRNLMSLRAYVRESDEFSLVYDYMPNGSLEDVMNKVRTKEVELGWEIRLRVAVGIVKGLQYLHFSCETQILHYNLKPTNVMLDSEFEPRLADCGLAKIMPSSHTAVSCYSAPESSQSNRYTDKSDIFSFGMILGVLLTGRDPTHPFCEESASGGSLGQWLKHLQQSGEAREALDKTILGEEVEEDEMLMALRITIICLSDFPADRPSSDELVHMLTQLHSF

| Substance | wus-like (%) T1 shoot phenotypes, overexpression in crn-1 [1] | wus-like (%) T1 shoot phenotypes, overexpression in clv2-1 [2] |
| --- | --- | --- |
| HsCLE1 (beet cyst nematode CLE protein, overexpressed in Arabidopsis) (ligand) | 0% | 0% |
| HgCLE2ΔSP (soybean cyst nematode CLE protein, overexpressed in Arabidopsis) (ligand) | 0% | 0% |
| HsCLE2 (beet cyst nematode CLE protein, overexpressed in Arabidopsis) (ligand) | 0% | 0% |
